Results as given in article PMC8943206 (2022).

Biological target: T1, cGAS-His (human, UniProt Q8N884 1-522)
T1 chain: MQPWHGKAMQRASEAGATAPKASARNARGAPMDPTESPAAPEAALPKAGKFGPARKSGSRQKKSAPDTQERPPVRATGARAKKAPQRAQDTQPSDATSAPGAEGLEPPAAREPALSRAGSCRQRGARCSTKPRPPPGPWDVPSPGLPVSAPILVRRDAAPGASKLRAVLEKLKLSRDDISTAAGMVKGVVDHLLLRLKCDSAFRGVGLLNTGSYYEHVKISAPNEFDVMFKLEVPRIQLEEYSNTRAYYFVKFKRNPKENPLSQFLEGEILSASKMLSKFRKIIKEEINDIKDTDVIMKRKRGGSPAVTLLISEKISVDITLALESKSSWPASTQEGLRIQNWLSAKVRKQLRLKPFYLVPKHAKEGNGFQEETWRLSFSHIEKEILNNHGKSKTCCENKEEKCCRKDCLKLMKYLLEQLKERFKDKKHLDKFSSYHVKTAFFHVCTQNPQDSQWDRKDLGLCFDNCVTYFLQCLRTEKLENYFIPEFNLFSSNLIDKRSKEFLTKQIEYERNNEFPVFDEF
Assay: SPR

Kd: 470 nM
B1: GST-PCBP2 (natural protein)
chain: MDTGVIEGGLNVTLTIRLLMHGKEVGSIIGKKGESVKKMREESGARINISEGNCPERIITLAGPTNAIFKAFAMIIDKLEEDISSSMTNSTAASRPPVTLRLVVPASQCGSLIGKGGCKIKEIRESTGAQVQVAGDMLPNSTERAITIAGIPQSIIECVKQICVVMLETLSQSPPKGVTIPYRPKPSSSPVIFAGGQDRYSTGSDSASFPHTTPSMCLNPDLEGPPLEAYTIQGQYAIPQPDLTKLHQLAMQQSHFPMTHGNTGFSGIESSSPEVKGYWGLDASAQTTSHELTIPNDLIGCIIGRQGAKINEIRQMSGAQIKIANPVEGSTDRQVTITGSAASISLAQYLINVRLSSETGGMGSS
